# In the supplement of paper PMC10724198:
# ± gives the standard deviation of the averaged measurements.
# What was measured:
# Saccharomyces cerevisiae [1] = assay: protein stability index of tFT-peptide fusion (C-terminal peptide) (PSI (0-1 scale)); higher = more stable (slower turnover)
# Procedure: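 MPS profiling in S. cerevisiae of the tFT-X12 degron library: putative degron peptides plus stable controls, 12 aa, fused to the C-terminus of a sfGFP-mCherry timer. Cells are FACS-sorted into 8 mCherry/sfGFP bins and deep-sequenced. PSI runs from 0 (unstable) to 1 (stable). Backgrounds are wild type, das1Δ and doa10Δ at 30 °C, and wild type, das1Δ, cdc34-1 and cdc53-1 at 37 °C; 2-3 technical replicates each.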
# Saccharomyces cerevisiae [2] = assay: as above; details: genetic background: wild type; temperature: 30 C
# [3] = genetic background: cdc34-1, temperature: 37 C
# [4] = genetic background: cdc53-1, temperature: 37 C
# [5] = genetic background: das1 deletion, temperature: 30 C
# [6] = genetic background: das1 deletion, temperature: 37 C
# [7] = genetic background: doa10 deletion, temperature: 30 C
# [8] = genetic background: wild type, temperature: 30 C
# [9] = genetic background: wild type, temperature: 37 C
# 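Also: PSI is a weighted mean of sequencing reads over stability bins, variants kept only with over 10 reads, mCherry proximal and sfGFP distal, peptide attached via GGGS linker.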
Sequence,protein stability index (Saccharomyces cerevisiae [1]; [3]),protein stability index (Saccharomyces cerevisiae [1]; [4]),protein stability index (Saccharomyces cerevisiae [1]; [5]),protein stability index (Saccharomyces cerevisiae [1]; [6]),protein stability index (Saccharomyces cerevisiae [1]; [7]),protein stability index (Saccharomyces cerevisiae [1]; [8]),protein stability index (Saccharomyces cerevisiae [1]; [9]),protein stability index (Saccharomyces cerevisiae [2])
CLCVLVSFFFGL,0.41 ± 0.037,0.489 ± 0.041,0.35 ± 0.024,0.5006 ± 0.0024,0.316 ± 0.024,0.323 ± 0.027,0.4768 ± 0.0016,0.288 ± 0.074
CLFHQFITLLVN,0.0942 ± 0.009,0.177 ± 0.012,0.222 ± 0.026,0.2692 ± 0.0019,0.0508 ± 0.017,0.0593 ± 0.0052,0.0523 ± 0.01,0.0965 ± 0.019
CLFLNCRFYMFL,0.951 ± 0.021,0.898 ± 0.065,0.808 ± 0.04,0.89 ± 0.024,0.788 ± 0.014,0.796 ± 0.036,0.905 ± 0.011,0.821 ± 0.035
CLFSPFCFILFC,0.0319 ± 0.013,0.0391 ± 0.0022,0.0898 ± 0.0084,0.11 ± 0.012,0.285 ± 0.021,0.074 ± 0.011,0.0686 ± 0.019,0.12318 ± 9.1e-05
CLTGWFGIFSAP,0.708 ± 0.019,0.755 ± 0.025,0.678 ± 0.016,0.763 ± 0.02,0.695 ± 0.015,0.688 ± 0.027,0.737 ± 0.015,0.7344 ± 0.0021
CMIACYALLRLL,0.176 ± 0.023,0.256 ± 0.011,0.346 ± 0.036,0.477 ± 0.0079,0.0799 ± 0.021,0.0777 ± 0.016,0.0702 ± 0.0087,0.11 ± 0.039
CPALYMPPPVLV,0.114 ± 0.036,0.13 ± 0.012,0.191 ± 0.026,0.238 ± 0.01,0.14 ± 0.03,0.182 ± 0.015,0.215 ± 0.0041,0.2594 ± 0.0017
CPPPPPSLLLLC,0.531 ± 0.025,0.6762 ± 0.0035,0.591 ± 0.012,0.666 ± 0.011,0.168 ± 0.0086,0.19 ± 0.013,0.29753 ± 0.00015,0.223 ± 0.0038
CRLCVFGVWFCG,0.532 ± 0.033,0.535 ± 0.012,0.443 ± 0.018,0.5751 ± 0.0034,0.448 ± 0.037,0.412 ± 0.022,0.5405 ± 0.0014,0.499 ± 0.033
CSPAFRPIVFVL,0.2771 ± 0.00097,0.2732 ± 0.00067,0.301 ± 0.026,0.407 ± 0.013,0.1802 ± 0.00032,0.163 ± 0.016,0.176 ± 0.0079,0.225 ± 0.013
CSVPLGVFAIVV,0.463 ± 0.0057,0.471 ± 0.032,0.382 ± 0.028,0.514 ± 0.0019,0.347 ± 0.0035,0.365 ± 0.038,0.4894 ± 0.0029,0.48 ± 0.019
CSYPTLSMYSTT,0.673 ± 0.068,0.766 ± 0.038,0.655 ± 0.013,0.718 ± 0.017,0.665 ± 0.007,0.645 ± 0.013,0.71 ± 0.011,0.74 ± 0.072
CTFFCICVFFLL,0.349 ± 0.019,0.413 ± 0.025,0.339 ± 0.027,0.463 ± 0.0064,0.267 ± 0.012,0.281 ± 0.022,0.4 ± 0.0063,0.392 ± 0.042
CTLVVGLFVLVV,0.168 ± 0.02,0.315 ± 0.022,0.209 ± 0.034,0.375 ± 0.024,0.168 ± 0.0065,0.216 ± 0.028,0.322 ± 0.0064,0.362 ± 0.0094
CVGLYCLFVLLG,0.289 ± 0.0046,0.357 ± 0.0088,0.273 ± 0.034,0.449 ± 0.019,0.172 ± 0.0049,0.161 ± 0.018,0.278 ± 0.0049,0.248 ± 0.004
